Measurements from publication PMC8687462 (bioRxiv, 2021).

Columns and labels:
HSPB6-nhpSer16 [1] = target: HSPB6-nhpSer16 (UniProt O14558); assay: AUC
HSPB6-pSer16 [2] = target: HSPB6-pSer16 (UniProt O14558); assay: AUC
HSPB6-nhpSer16 [3] = target: HSPB6-nhpSer16 (UniProt O14558); assay: SEC-MALS; details: scale: 14-3-3 chains per HSPB6 chain
HSPB6-pSer16 [4] = target: HSPB6-pSer16 (UniProt O14558); assay: SEC-MALS; details: scale: 14-3-3 chains per HSPB6 chain
SEC-MALS = target: the molecule itself; assay: SEC-MALS

Chain of HSPB6-pSer16 (O14558 whole entry): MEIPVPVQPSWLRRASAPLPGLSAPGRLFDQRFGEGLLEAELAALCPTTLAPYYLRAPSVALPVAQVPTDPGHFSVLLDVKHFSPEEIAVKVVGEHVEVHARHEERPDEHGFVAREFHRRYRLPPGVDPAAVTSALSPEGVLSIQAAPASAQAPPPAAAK
Chain of 14-3-3ζ (untagged, co-expressed with His-tagged HSPB6) (P63104 1-230): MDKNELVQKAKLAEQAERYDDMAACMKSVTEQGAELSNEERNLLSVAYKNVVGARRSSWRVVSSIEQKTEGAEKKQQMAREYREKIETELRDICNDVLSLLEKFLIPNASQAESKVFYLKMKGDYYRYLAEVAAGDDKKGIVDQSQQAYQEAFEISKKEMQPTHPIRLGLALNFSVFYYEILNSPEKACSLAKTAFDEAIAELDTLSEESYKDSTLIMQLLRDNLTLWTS

| Kd (HSPB6-nhpSer16 [1]) | Kd (HSPB6-pSer16 [2]) | stoichiometry N (HSPB6-nhpSer16 [3]) | stoichiometry N (HSPB6-pSer16 [4]) | Molecule | stoichiometry N (SEC-MALS) |
| --- | --- | --- | --- | --- | --- |
| 120 nM | 92 nM | 1 | 1 | 14-3-3ζ (untagged, co-expressed with His-tagged HSPB6) (from UniProt P63104 1-230) (natural protein) | – |
| – | – | – | – | 14-3-3ζ S58E (natural protein) MDKNELVQKAKLAEQAERYDDMAACMKSVTEQGAELSNEERNLLSVAYKNVVGARRSEWRVVSSIEQKTEGAEKKQQMAREYREKIETELRDICNDVLSLLEKFLIPNASQAESKVFYLKMKGDYYRYLAEVAAGDDKKGIVDQSQQAYQEAFEISKKEMQPTHPIRLGLALNFSVFYYEILNSPEKACSLAKTAFDEAIAELDTLSEESYKDSTLIMQLLRDNLTLWTS | 2 |
